Measured values reported in patent publication US20180237756.

Tests used:
[1] = target: T1, TgoT DNA polymerase (V93Q D141A E143A A485L) (Thermococcus gorgonarius) (UniProt P56689); conditions: does not synthesise HNA much beyond six incorporations
T1 sequence: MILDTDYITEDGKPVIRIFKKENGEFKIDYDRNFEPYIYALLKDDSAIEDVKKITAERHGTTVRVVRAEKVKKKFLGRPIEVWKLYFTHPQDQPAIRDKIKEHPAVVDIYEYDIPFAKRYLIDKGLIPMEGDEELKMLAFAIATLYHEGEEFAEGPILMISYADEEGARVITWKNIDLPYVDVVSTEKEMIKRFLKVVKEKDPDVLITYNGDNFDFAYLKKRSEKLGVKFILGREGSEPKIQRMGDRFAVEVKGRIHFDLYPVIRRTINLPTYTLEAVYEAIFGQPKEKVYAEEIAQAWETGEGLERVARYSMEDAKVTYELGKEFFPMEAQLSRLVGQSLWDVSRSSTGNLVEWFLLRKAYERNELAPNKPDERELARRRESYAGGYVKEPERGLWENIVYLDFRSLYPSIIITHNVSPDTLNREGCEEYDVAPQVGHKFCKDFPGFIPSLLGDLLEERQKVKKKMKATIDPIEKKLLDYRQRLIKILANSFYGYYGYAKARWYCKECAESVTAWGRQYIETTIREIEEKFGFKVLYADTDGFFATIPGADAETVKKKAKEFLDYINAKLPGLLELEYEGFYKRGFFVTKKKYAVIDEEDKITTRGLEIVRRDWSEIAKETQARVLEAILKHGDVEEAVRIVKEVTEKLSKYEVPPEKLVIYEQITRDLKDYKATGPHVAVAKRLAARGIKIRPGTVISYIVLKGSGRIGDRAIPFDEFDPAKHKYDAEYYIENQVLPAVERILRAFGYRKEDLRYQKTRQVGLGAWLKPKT

[2] = test system: TAT (trans-activator of transcription) (HIV); assay: competition

E. coli tRNA supE gene primer-template
activity (hNTP incorporations) [1]: 6

miniTAR RNA
IC50 ([2]; IC50 of HNA anti-TAR aptamer T5S8-7 (binds TAR RNA) displacing TAT from immobilized miniTAR, CI95 1.3-2.8 nM): 0.0019 µM
IC50 ([2]; IC50 of RNA anti-TAR aptamer R06 (binds TAR RNA) displacing TAT from immobilized miniTAR, CI95 166-675 nM): 0.313 µM
